This note sets out measurements from US20200131227A1, “POLYPEPTIDE WITH TUMOUR BINDING ACTIVITY” (RUPRECHT-KARLS-UNIVERSITÄT HEIDELBERG, priority 2017, published 2020).

One data set has as its target ITGαvβ3 (Homo sapiens, UniProt P05106+P06756). Kind of data set: Surface plasmon resonance assay (SPR), ITGαvβ3. Format: binding. The settings on record: SPR. Here is the method: (§1) Assessment of the binding affinity was performed on a BiaCore X100 (GE Healthcare). To avoid denaturation of the heterodimer during amide activation ITGαvβ6 and ITGαvβ3, respectively, were used as analytes and SFITGv6 was immobilized at its N-terminus on a C1 sensor Chip (BR-1005-35, GE Healthcare) using a manual amine coupling protocol. Briefly, after activation of the sensor chip surface with a solution of EDC 0.4 M/NHS 0.1 M for 5 min a 100 μM peptide dissolved in HBS-EP running buffer (0.1 M HEPES, 30 mM EDTA, 1.5 M NaCl, 0.5% surfactant P20, pH 7.2) was immobilized with a contact time of 30 sec until a loading level of 18 response units (RU) was obtained. […] The SPR-sensogram data were evaluated with the BiaCore evaluation software. The dissociation constant (KD) was determined by a 1:1 Langmuir model fit of the SPR-sensograms.
as §1, with “SFLAP3” for “peptide”, “to obtain” for “until”, “12” for “18”, “(RU).” for “(RU) was obtained.”, “SPR sensogram” for “SPR-sensogram”, “SPR sensograms.” for “SPR-sensograms.”
(SPR reads the build-up and loss of mass on a sensor chip optically.)

Data set [1] can be described thus: Serum stability assay (radio-HPLC). The class given is in vitro ADME, human. The settings on record: radio-HPLC, 37° C., up to 24 hours. The method, then: Five MBq of the purified ^131I-radiolabeled peptide was incubated in 300 μL human serum at 37° C. After different time intervals (15 min to 24 hours) 20 μL serum was precipitated with 40 μL acetonitrile. The stability of the labeled peptide in the supernatant was monitored by radio-HPLC at selected time points using a chromolith performance RP18ec column (3 mm×100 mm) equipped with a gamma detector (Packard COBRA™ Auto-Gamma, GMI). Separation condition was a gradient of 0% to 60% aqueous acetonitrile supplemented with 0.1% TFA over 10 min with a flow rate of 2 mL/min.

The next data set has as its system HNO399 xenografts. Kind of data set: Biodistribution, HNO399 xenografts. Format: in vivo, mice.
In another data set the test system is HNO223 xenografts. Kind of data set: Biodistribution, HNO223 xenografts. Format: in vivo, mice.
Data set [2] deals with HNSCC tumor sections (HNO97 xenograft, HNO444, HNO399, HNO210). Put plainly: Histochemical peptide staining of HNSCC tumor cryosections. Details: species or system human. Particulars: biotinylated PEG(12)-peptide, 10^-5 M. Here is the method: Staining with the biotinylated PEG(12)-SFITGv6 peptide was performed on acetone-fixed cryosections (5 μm) of tumor tissues after blocking of unspecific binding using the Avidin/Biotin Blocking Kit (SP-2001, Vector Laboratories). A stock solution of the lyophilized peptide was prepared by dilution in 5% aqueous DMSO. Slices were incubated overnight at 4° C. with 10^-5 M peptide concentration in antibody diluent (DAKO). Detection of bound peptide was carried out with the Vectastain Elite ABC Kit (PK-6100, Vector Laboratories) according to manufacturer's protocol. Peptide specificity was ensured by a scrambled (GRD) PEG(12)-SFITGv6 derivate, the somatostatin receptor ligand DOTATOC and negative controls (without peptide or primary antibody) Staining results were assessed by bright field microscopy (BX50) with the SC30 camera and the cell Sense software (all Olympus).
Immunohistochemical stainings were performed by use of the biotinylated PEG(12)-labled peptides (SFITGv6, SFLAP3) on 5 μm acetone-fixed tumor tissue cryosections. To prevent background staining we initially applied the Avidin/Biotin Blocking Kit (SP-2001, Vector Laboratories). The lyophilized peptides were diluted in 5% aqueous DMSO preparing a 1 mM Stock solution. The HNSCC cryosections were incubated with 10^−5 M peptide concentration in antibody diluent (DAKO) at 4° C. overnight. To detect bound peptide the Vectastain Elite ABC Kit (PK-6100, Vector Laboratories) was applied according to manufacturer's protocol. Peptide binding specificity was ensured by use of a peptide derivate (scrambled control) and negative controls (without peptide). Due to instability of the peptide binding staining results were assessed on the same day by bright field microscopy (BX50) with the SC30 camera and the cell Sense software (all Olympus).

Data set [3] addresses integrin αvβ6 (ITGαvβ6) as expressed on human carcinoma cell lines and tumor tissue sections (human) (UniProt P06756). Put plainly: peptide competing with 125I-SFITGv6 on HNO97 cells, 60 min.
Data set [4] addresses T1, integrin αvβ6 (ITGαvβ6) as expressed on human carcinoma cell lines and tumor tissue sections (human, UniProt P06756 31-1048; P18564 22-788).
T1 construct: whole, on cells; also called ITGAVB6; ITGαvβ6-expressing HNO97 cells
Put plainly: 125I-peptide binding to HNO223 cells, 60 min.

The target of data set [5] is T2, ITGαvβ3 heterodimer (analyte in SPR) (UniProt P06756 31-992; P05106 27-718, limits assumed).
T2 construct: Soluble heterodimer used as analyte over immobilised peptide; construct not described
T2 sequence (P06756 31-992 limits assumed, chain 1 of 2): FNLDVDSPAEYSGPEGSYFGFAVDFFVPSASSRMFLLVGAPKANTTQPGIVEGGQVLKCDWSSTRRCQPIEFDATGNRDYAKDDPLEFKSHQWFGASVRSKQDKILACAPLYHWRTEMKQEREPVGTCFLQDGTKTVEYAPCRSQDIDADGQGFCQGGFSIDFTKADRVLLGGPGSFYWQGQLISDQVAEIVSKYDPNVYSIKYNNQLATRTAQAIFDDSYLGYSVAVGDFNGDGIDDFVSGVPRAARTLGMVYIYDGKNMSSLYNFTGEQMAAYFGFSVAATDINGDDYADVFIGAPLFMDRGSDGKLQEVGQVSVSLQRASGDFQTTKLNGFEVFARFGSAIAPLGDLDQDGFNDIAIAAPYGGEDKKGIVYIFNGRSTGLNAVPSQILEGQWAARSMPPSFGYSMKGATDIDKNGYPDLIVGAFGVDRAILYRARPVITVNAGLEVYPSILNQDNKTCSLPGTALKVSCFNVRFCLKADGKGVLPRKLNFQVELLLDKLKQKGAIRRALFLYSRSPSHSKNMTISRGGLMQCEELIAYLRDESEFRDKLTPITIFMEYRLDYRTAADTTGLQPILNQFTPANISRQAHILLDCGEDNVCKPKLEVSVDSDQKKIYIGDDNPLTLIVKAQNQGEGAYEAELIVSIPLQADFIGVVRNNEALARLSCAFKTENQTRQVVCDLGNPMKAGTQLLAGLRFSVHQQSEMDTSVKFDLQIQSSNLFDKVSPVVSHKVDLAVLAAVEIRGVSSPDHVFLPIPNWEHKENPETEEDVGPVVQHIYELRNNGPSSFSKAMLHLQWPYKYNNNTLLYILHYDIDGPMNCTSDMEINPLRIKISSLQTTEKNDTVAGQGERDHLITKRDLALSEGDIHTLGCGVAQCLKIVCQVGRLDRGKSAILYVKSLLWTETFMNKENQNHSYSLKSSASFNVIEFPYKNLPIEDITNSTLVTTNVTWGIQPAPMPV
T2 sequence (P05106 27-718 limits assumed, chain 2 of 2): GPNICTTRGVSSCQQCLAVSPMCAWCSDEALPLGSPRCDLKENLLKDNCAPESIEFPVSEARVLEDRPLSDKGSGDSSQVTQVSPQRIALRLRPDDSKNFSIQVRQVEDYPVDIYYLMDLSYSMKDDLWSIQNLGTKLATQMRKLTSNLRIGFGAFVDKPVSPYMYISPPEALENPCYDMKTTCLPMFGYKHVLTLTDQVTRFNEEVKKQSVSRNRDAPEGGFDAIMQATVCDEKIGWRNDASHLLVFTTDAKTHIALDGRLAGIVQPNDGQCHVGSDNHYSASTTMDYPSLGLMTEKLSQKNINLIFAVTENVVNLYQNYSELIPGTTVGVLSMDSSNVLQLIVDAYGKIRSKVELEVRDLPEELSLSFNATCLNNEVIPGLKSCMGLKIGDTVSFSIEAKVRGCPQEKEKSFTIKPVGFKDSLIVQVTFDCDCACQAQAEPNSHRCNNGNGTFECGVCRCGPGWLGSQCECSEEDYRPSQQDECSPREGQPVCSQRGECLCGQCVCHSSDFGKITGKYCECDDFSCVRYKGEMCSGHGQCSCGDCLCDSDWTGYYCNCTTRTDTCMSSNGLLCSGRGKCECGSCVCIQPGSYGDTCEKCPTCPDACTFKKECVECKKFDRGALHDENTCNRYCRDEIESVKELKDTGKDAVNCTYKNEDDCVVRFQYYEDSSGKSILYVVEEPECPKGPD
Put plainly: SPR, ITGαvβ3 against ITGαvβ6 on immobilised SFITGv6.

Data set [6] concerns the target T1, integrin αvβ6 (ITGαvβ6) as expressed on …. Kind of data set: unlabeled peptide competing with 125I-SFITGv6 on HNO97 cells, 60 min; HNO97 cells, cell competition IC50.
Data set [7] has as its target T2, ITGαvβ3 heterodimer (analyte in SPR). Kind of data set: SPR (BiaCore X100), peptide immobilised on C1 chip, ITGαvβ3 as analyte, 1:1 Langmuir fit; SPR, ITGαvβ3 as analyte.
The target in data set [8] is T1, integrin αvβ6 (ITGαvβ6) as expressed on …. Put plainly: unlabeled peptide competing with 125I-SFITGv6 on HNSCC cell lines (HNO97, HNO399, HNO223), mean; mean over HNSCC cell lines.
For data set [9] the target is unchanged. Kind of data set: 125I-peptide binding to HNO97 cells, 60 min.
For data set [10] the target is unchanged. Kind of data set: 125I-peptide binding to HNO199 cells, 60 min.
Data set [11] has the same target. Kind of data set: 125I-peptide binding to HNO210 cells, 60 min.
For data set [12] the target is unchanged. Put plainly: unlabeled peptide (10^-10 to 10^-4 M) competing with the 125I-labeled peptide on HNO97 cells.
In data set [13] the target is T2, ITGαvβ3 heterodimer (analyte in SPR). Put plainly: SPR, αvβ3 heterodimer against ITGαvβ6 on immobilised SFLAP3.
For data set [14], the target named is T1, integrin αvβ6 (ITGαvβ6) as expressed on …. Kind of data set: competition of unlabeled SFLAP3 with 125I-SFLAP3 on HNO97 cells.
The target is the same in data set [15]. Kind of data set: competition of unlabeled SFLAP3 with 125I-SFLAP3 on HNO223 cells.
For data set [16] the target is unchanged. Put plainly: competition of unlabeled SFLAP3 with 125I-SFLAP3 on HNO399 cells.
Data set [17] addresses T2, ITGαvβ3 heterodimer (analyte in SPR). Kind of data set: SPR (BiaCore X100), peptide immobilised on C1 chip, ITGαvβ3 as analyte, 1:1 Langmuir fit; SPR, αvβ3 as analyte.
The target of data set [18] is T3, ITGαvβ6 heterodimer (analyte in SPR) (UniProt P06756 31-992; P18564 22-707, limits assumed).
T3 construct: Soluble heterodimer used as analyte over immobilised peptide; construct not described; also called heterodimeric receptor ITGαvβ6
T3 sequence (P06756 31-992 limits assumed, chain 1 of 2): as the sequence (P06756 31-992 limits assumed, chain 1 of 2) above
T3 sequence (P18564 22-707 limits assumed, chain 2 of 2): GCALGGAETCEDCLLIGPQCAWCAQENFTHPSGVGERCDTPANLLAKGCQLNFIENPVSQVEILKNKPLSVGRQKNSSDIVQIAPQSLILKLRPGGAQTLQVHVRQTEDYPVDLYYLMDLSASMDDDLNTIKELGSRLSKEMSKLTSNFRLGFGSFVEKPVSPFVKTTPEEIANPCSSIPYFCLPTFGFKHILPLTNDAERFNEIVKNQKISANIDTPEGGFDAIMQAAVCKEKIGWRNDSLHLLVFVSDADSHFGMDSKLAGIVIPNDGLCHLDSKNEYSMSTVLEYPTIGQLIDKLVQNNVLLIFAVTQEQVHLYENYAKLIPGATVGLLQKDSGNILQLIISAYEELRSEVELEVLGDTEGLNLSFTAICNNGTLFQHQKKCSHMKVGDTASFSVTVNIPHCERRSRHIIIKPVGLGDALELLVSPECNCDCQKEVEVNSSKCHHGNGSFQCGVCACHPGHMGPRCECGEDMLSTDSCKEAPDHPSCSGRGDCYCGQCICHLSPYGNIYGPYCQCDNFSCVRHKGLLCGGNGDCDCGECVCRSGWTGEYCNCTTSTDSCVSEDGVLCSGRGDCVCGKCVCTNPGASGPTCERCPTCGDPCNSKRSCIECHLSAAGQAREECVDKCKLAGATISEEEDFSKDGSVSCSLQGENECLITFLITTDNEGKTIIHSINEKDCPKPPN
Put plainly: SPR (BiaCore X100), peptide immobilised on C1 chip, ITGαvβ6 as analyte, 1:1 Langmuir fit; SPR, ITGαvβ6 as analyte.

Data set [19] concerns the target T1, integrin αvβ6 (ITGαvβ6) as expressed on …. Put plainly: unlabeled peptide competing with 125I-SFLAP3 on HNSCC cell lines (HNO97, HNO399, HNO223), mean; mean over HNSCC cell lines.

Entries after “also recorded” stand apart in the source; their conditions may differ. Where a SMILES comes first, the peptide text is derived from it. Bridges are numbered along the chain shown (N, C = ends). Where no end group is shown, it is not given here.

T1 sequence (P06756 31-1048, chain 1 of 2): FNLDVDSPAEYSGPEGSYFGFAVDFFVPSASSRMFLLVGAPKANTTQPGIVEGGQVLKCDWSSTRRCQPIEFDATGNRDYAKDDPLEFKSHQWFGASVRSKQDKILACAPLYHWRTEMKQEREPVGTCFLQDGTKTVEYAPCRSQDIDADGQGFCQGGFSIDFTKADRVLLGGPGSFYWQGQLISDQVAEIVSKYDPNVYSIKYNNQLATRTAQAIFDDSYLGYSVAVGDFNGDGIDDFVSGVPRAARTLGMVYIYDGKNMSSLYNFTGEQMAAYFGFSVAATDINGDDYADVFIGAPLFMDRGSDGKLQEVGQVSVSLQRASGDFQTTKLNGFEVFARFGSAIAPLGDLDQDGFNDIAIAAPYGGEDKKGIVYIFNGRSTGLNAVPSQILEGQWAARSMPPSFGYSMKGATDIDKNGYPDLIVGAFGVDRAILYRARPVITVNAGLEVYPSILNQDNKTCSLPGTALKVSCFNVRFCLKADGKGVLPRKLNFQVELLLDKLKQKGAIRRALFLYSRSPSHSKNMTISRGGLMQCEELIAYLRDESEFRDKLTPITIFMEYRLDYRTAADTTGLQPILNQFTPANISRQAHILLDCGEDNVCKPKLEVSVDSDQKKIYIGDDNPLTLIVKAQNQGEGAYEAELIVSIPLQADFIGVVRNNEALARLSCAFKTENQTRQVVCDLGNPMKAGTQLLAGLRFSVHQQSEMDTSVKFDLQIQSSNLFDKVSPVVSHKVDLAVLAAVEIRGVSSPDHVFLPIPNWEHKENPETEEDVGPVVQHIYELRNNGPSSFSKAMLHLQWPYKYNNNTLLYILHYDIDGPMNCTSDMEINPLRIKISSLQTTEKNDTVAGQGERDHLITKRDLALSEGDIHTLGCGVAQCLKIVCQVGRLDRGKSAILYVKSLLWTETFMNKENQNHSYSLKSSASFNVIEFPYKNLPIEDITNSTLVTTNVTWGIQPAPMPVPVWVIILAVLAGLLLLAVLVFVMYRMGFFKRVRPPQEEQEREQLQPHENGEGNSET
T1 sequence (P18564 22-788, chain 2 of 2): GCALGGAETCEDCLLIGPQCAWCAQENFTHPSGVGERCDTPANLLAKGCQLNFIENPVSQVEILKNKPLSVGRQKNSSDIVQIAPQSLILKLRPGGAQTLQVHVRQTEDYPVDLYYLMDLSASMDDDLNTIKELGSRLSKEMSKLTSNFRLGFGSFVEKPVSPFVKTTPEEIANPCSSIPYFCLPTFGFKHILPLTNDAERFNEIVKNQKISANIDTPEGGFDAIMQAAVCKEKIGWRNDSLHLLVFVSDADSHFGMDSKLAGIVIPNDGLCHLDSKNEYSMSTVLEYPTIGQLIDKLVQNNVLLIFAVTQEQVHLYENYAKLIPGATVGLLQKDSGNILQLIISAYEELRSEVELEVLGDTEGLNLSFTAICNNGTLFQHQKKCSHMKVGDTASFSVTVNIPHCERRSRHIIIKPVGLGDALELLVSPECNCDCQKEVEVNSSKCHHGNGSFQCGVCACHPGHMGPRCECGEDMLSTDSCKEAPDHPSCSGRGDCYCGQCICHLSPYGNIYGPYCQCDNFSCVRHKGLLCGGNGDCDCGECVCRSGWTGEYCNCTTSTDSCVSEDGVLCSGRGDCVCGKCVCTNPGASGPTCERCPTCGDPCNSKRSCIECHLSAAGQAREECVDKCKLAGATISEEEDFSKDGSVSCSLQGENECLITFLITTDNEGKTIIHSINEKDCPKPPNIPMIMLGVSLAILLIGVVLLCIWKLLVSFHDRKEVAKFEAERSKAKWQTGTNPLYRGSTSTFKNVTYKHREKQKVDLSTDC
integrin αvβ6 (ITGαvβ6) as expressed on human carcinoma cell lines and tumor tissue sections (human), sequence (P06756 31-1048, chain 1 of 2): as the sequence (P06756 31-1048, chain 1 of 2) above
integrin αvβ6 (ITGαvβ6) as expressed on human carcinoma cell lines and tumor tissue sections (human), sequence (P18564 22-788, chain 2 of 2, further chain): as the sequence (P18564 22-788, chain 2 of 2) above
ITGαvβ3, sequence (P06756 31-992 limits assumed): as the sequence (P06756 31-992 limits assumed, chain 1 of 2) above
ITGαvβ3, sequence (P05106 27-718 limits assumed): as the sequence (P05106 27-718 limits assumed, chain 2 of 2) above

With `CC(C)C[C@@H]1NC(=O)[C@H](CC(=O)O)NC(=O)CNC(=O)[C@H](CCCNC(=N)N)NC(=O)CNC(=O)[C@H]([C@@H](C)O)NC(=O)[C@@H](NC(=O)[C@H](CCCNC(=N)N)NC(=O)CN)CSSC[C@@H](C(=O)N[C@@H](Cc2ccc(O)cc2)C(=O)N2CCC[C@H]2C(=O)N[C@@H](CC(=O)O)C(=O)O)NC(=O)[C@H](CC(C)C)NC(=O)[C@H](CCCNC(=N)N)NC(=O)CNC1=O` [SFLAP3, H2N-G-R-C1-T-G-R-G-D-L-G-R-L-C2-Y-P-D-COOH] (H-GRCTGRGDLGRLCYPD-OH; disulfide 3-13), at ITGαvβ3, the “lower affinity for ITGαvβ3 than for ITGαvβ6” value is given as 10 fold. Moreover, in data set [1], the “proteolytic stability in human serum” value was “no degradation over a 24 hours; also recorded: shown for up to 24 hours”. In addition, the “maximum accumulation in the tumor lesion” value in the data set on HNO399 xenografts (60 min post injection) came to 3.6 % ID/g; in the data set on HNO223 xenografts (60 min post injection, HNO233-xenografted as printed) it was 3.4 % ID/g. In addition, the “accumulation in the tumor after decrease” value with HNO399 xenografts (360 min after injection) and with HNO223 xenografts (360 min after injection) was about 2% in each case. Further, the “histochemical peptide staining result” value in [2] is “slightly fainter staining capacity”.

A word on the IC50: it is the concentration at which inhibition is half-maximal. Higher therefore signals lower potency. As for A20FMDV2 (peptide), in data set [3], the IC50 was determined as 3.2 nM.

B1: SFITGv6 (peptide)
peptide: GRCTFRGDLMQLCYPD
modifications: disulfide 3-13 (inferred); not fully specified (C-terminus); also: 125I on the tyrosine in labelled tracer form
notes: Synthetic SFTI-1 derivate
A word on the Kd: it is the free concentration of one partner at which half of the binding sites on the other are occupied at equilibrium, for simple one-to-one binding. Read a high Kd as a looser complex. Regarding B1, the “percent of applied dose bound per 10^6 cells” value in [4] was 13.5%. For the same molecule, in data set [5], the “fold lower affinity than for ITGαvβ6” value came out at 10 fold. For the same molecule, the IC50 in [6] amounted to 16.1 nM; in data set [8], 14.1 nM. In addition, the dissociation constant (Kd) in [7] turned out to be 185 nM.

B2: SFPF-10 (peptide)
peptide: GRCTFRGDKMQLCYPD
modifications: disulfide 3-13 (inferred); also: 125I on the tyrosine in labelled tracer form
notes: Originally selected peptide of the SFTI8Ph library
For B2, the “percent of applied dose bound per 10^6 cells” value was found to be 7.2% in [9], 3.1% in data set [10], 5% in [11] and 11% in data set [4]. Besides, in data set [12], the IC50 came out at 18 nM.

B3: SFLAP3 (peptide)
peptide: GRCTGRGDLGRLCYPD
modifications: disulfide 3-13 (inferred); not fully specified (C-terminus); also: 125I on the tyrosine in labelled tracer form
B3: the “percent of applied dose bound per 10^6 cells” value in data set [9] was determined as 24.7%; in data set [10], 19.7%; in [11], 10.6%; in data set [4] it was 17.6%. For the same molecule, in data set [13], the “fold lower affinity than for ITGαvβ6” value was determined as 10 fold. The concentration for half-maximal inhibition (IC50) was determined as 4.7 nM in [14], 2.56 nM in data set [15], 3.25 nM in data set [16] and 3.5 nM in [19]. The equilibrium dissociation constant (Kd) is 185 nM in [17] and 7.4 nM in data set [18].
